15 molecules from patent US20240109974A1 (SHANDONG SIMCERE BIOPHARMACEUTICAL, published 2024) can be followed below.

In general, EC50 refers to the concentration at which the effect is half-maximal.

Experiment [1] has as its target T1, human TNFR2 on the surface of CHO-TNFR2 cells (human, UniProt P20333 23-461).
T1 construct: whole, on cells
T1 sequence (looked up): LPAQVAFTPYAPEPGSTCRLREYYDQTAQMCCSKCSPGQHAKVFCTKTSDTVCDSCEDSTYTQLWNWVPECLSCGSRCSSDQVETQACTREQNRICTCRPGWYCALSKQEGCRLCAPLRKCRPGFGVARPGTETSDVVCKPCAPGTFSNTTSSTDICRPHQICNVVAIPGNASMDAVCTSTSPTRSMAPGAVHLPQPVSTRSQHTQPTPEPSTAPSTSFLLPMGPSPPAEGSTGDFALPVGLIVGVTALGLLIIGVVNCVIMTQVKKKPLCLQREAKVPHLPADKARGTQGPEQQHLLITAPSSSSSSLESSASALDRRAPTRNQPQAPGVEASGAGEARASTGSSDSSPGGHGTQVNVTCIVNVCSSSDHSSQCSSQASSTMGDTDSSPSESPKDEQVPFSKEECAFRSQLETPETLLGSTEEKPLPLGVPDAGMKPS
In words: flow cytometry on CHO-TNFR2 cells; area under the MFI fold curve. As for the experimental part:
The transfected full-length plasmid of human TNFR2 was purchased from Sino Biological (Cat #HG10417-UT, NCBI Ref Seq: NM_001066.2). The experiment was conducted at a cell density within 80%. The cell medium was discarded; the cells were rinsed with PBS, and digested with 1 ml trypsin for 2 minutes; the digestion was stopped with a Ham's F12 complete medium containing 10% FBS, and then a cell suspension was made. The cell suspension was counted, and then an appropriate amount of cell suspension was centrifuged at 350×g; the supernatant was discarded; a corresponding volume of blocking solution (10% FBS+PBS) at a density of 1×10⁷ cells/ml was added to resuspend the cells, and the mixture was incubated at 4° C. for 30 minutes. After the incubation, the mixture was centrifuged at 350×g to remove the supernatant, and the cells were resuspended in a staining buffer (2% FBS+PBS) to a density of 2×10⁶ cells/ml, and spread onto a 96-well plate, with 50 μl of cell suspension added to each well for later use. The antibody was diluted with PBS for 10-fold gradient dilution from the highest concentration of 20 μg/m (twice the concentration); the diluted antibody was added to the well containing 50 μl of cell suspension, and placed on a microplate shaker for shaking at 500 rpm for 1 minute, so that the antibody was fully mixed with the cells; the mixture was incubated at 4° C. for 1 h. After the incubation, the cells were washed twice with the staining buffer, with 100 μl per well, and centrifuged at 350-g for 5 minutes, and the supernatant was discarded. The PE goat anti-Human IgG Fc antibody (ebioscience, Cat #12-4998-82) was diluted 250-fold with the staining buffer, with a volume of 100 μl per well added to the washed cell wells; the mixture was mixed evenly, and stained at 4° C. for 30 minutes. After the staining, similarly, the cells were washed twice with the staining buffer; finally, the cells were resuspended in 200 μl of staining buffer; signals were detected by a flow cytometer (Thermo Attune NxT). The stronger the signal, the stronger the binding ability of an antibody to TNFR2. The binding curve of an antibody was drawn with antibody concentration as the abscissa and corresponding mean fluorescence intensity (MFI) fold as the ordinate, and fitted with four parameters (GraphPad Prism9) to calculate the EC50 value.

Experiment [2] concerns the target T2, Cynomolgus TNFR2-His (Sino 90102-C08H) (cynomolgus monkey, UniProt A0A2K5VET2 132-366).
T2 construct: Bought protein; also called cynomolgus monkey TNFR2; recombinant cynomolgus monkey TNFR2 protein; not shown: His tag
T2 sequence: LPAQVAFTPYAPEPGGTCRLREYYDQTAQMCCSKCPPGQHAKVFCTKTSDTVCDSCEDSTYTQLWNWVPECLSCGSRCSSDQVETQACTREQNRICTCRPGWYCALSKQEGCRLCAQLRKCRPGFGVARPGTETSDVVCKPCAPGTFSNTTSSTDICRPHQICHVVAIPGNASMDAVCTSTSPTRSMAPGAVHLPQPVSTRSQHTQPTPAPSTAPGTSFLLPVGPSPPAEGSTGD
In words: ELISA, cynomolgus TNFR2-His coated. As for the experimental part: (§1) The test humanized antibody against TNFR2 (as described in Example 1, the antibody was comprised of variable regions linked to IgG-Fc; the WT chimeric antibody also adopted the IgG-Fc structure) was subjected to 3.33-fold gradient dilution, loaded with 100 μl/well, and incubated with shaking at room temperature for 1.5 hours. The plate was washed, and then a working solution of murine anti-human IgG Fc-HRP (diluted at 1:10000) was added, loaded with 100 μl/well, and incubated with shaking at room temperature for 1.0 hour. The plate was washed again, and then the substrate TMB of HRP was added to develop colour. A stop solution was added to stop the reaction, and then a microplate reader (MD 13) was used to read the absorbance value. The binding curve of an antibody was drawn with antibody concentration as the abscissa and corresponding OD value as the ordinate, and fitted with four parameters (GraphPad Prism9) to calculate the EC50 value. The smaller the EC50 value, the stronger the binding ability of an antibody to human/cynomolgus monkey TNFR2. The binding effect of a humanized antibody was normalized to its corresponding human-murine chimeric antibody WT (see SEQ ID NOs: 38-43 for the sequence). The higher the percentage value, the better the binding effect of the humanized antibody. The results of binding of an anti-TNFR2 antibody to a human TNFR2 protein are shown in FIG. 1 and Table 4, and the results of binding of an anti-TNFR2 antibody to cynomolgus monkey TNFR2 are shown in FIG. 2 and Table 4.
In general terms: ELISA stands for enzyme-linked immunosorbent assay.

Experiment [3] concerns the target T3, Human TNFR2-His (Sino 10417-H08H) (human, UniProt P20333 23-257).
T3 construct: Bought protein; also called recombinant human TNFR2 protein; not shown: His tag
T3 sequence (looked up): T2 sequence with G16S, P36S, Q117P, H164N, A210E, G216S, V223M
Kind of experiment: ELISA, human TNFR2-His coated. As for the experimental part:
as §1

Experiment [4] has as its target T3, Human TNFR2-His (Sino 10417-H08H). Kind of experiment: ELISA, human TNFR2-His coated; EC50 against 224-WT. As for the experimental part:
as §1

Substitutions are numbered along the chain they refer to.

B1: 219-WT (antibody, V domains shown)
VH: EVQLQESGAELVRPGASVKLSCKASGYSFTNYWMNWVKQRPGQGLEWIGMIHPSDTETRLNQNFKDKATLTVDKSSSTSYMQLSSPTSEDSAVYYCARGEGLGAARSVSMDYWGQGTTVTVSS
VL: DILMTQSPSSLSASLGDRVTISCRASQDISNYLNWYQQKPDGTVKVLIYYTAILHSGVPSRFSGSGSGTDYSLTISNLEQEDIATYFCQQGNTLPWTFGGGTKLEIK
notes: Human-murine chimeric wild-type molecule
In experiment [1], B1 gave an AUC of 516.

B2: 219-Hu3 (antibody, V domains shown)
VH: QVQLVQSGAEVKKPGSSVKVSCKASGYSFTNYWMNWVRQAPGQGLEWMGMIHPSDTETRLNQNFKDRVTITADKSTSTAYMELSSLRSEDTAVYYCARGEGLGAARSVSMDYWGQGTLVTVSS
VL: B1 VL with L3Q, L15V, S22T, V46L, N77S, E79Q, Q80P, I83F, G100Q, L104V
notes: also called VH5 + VL5
For B2, in experiment [1], the AUC was 497. The figures for the EC50 in experiment [2] and in experiment [3] were 0.0127 µg/mL and 0.021 µg/mL, respectively.

B3: 219-Hu4 (antibody, V domains shown)
VH: B2 VH with R38K, M48I, R67K, V68A, I70L, A72V
VL: B1 VL with L3Q, L15V, S22T, V46L, N77S, E79Q, Q80P, I83F, G100Q, L104V
notes: also called VH6 + VL5
In experiment [1], B3 showed an AUC of 493. Further, the values for the EC50 in experiment [2] and in experiment [3] were 0.0123 µg/mL and 0.0168 µg/mL, respectively.

B4: 219-Hu2 (antibody, V domains shown)
VH: B2 VH with R67K, V68A
VL: B1 VL with L3Q, L15V, S22T, V46L, N77S, E79Q, Q80P, I83F, G100Q, L104V
notes: also called VH4 + VL5
In experiment [1], B4 yielded an AUC of 534. The results for the EC50 in experiment [2] and in experiment [3] were 0.0113 µg/mL and 0.0185 µg/mL, respectively.

B5: 219-Hu5 (antibody, V domains shown)
VH: B2 VH with A72V
VL: B1 VL with L3Q, L15V, S22T, V46L, N77S, E79Q, Q80P, I83F, G100Q, L104V
notes: also called VH7 + VL5
B5 returned an AUC in experiment [1] of 481. The EC50 in experiment [2] stood at 0.0122 µg/mL; in experiment [3], 0.0173 µg/mL.

B6: 219-Hu1 (antibody, V domains shown)
VH: B2 VH with S16A, G44R, A72R, K74T, T76A
VL: B1 VL with L3Q, L15V, S22T, V46L, N77S, E79Q, Q80P, I83F, G100Q, L104V
notes: also called VH3 + VL5
On to B6, for which the AUC in experiment [1] was determined as 565. Moreover, the values for the EC50 in experiment [2] and in experiment [3] were 0.0148 µg/mL and 0.0213 µg/mL, respectively.

B7: 001-WT (antibody, V domains shown)
VH: EVQLQESGGGLVQPGGSLNLSCAASGFAFSTYDLSWVRQTPEKRLEWVAYINNGGISTYYSDTVKGRFTISRDNAKNTLYLQMSSLKSEDTAMYYCVRGPFYGSANYFDYWGQGTTVTVSS
VL: EIVMTQSPASLSLSVGETVTITCRTSESIYSNLPWYQQKQGKSPQLLVYDATKLAEGVPSRFSGSESGTQYSLKINSLQSEDFGTYYCQHFWVTPWTFGGGTKLEIK
notes: Human-murine chimeric wild-type molecule; also called human-murine chimeric antibody WT of #001
In experiment [1], B7 had an AUC of 490.

B8: 001-Hu5 (antibody, V domains shown)
VH: B7 VH with Q5V, N19R, T40A, E42G, R44G, S84N, K87R, S88A, M93V, T116L
VL: DIQMTQSPSSLSASVGDRVTITCRTSESIYSNLPWYQQKPGKSPKLLVYDATKLAEGVPSRFSGSGSGTDYTLTISSLQPEDFATYYCQHFWVTPWTFGQGTKVEIK
notes: Humanized form of #001; also called VH1 + VL4
For the molecule B8, the AUC in experiment [1] was 431. The EC50 in experiment [2] came out at 0.00988 µg/mL; in experiment [3], 0.0102 µg/mL.

B9: 001-Hu3 (antibody, V domains shown)
VH: B7 VH with Q5V, N19R, T40A, E42G, R44G, S84N, K87R, S88A, M93V, T116L
VL: B8 VL with S43A, V48I
notes: Humanized form of #001; also called VH1 + VL3
In experiment [1], B9 yielded an AUC of 431. The EC50 in experiment [2] stood at 0.0099 µg/mL; in experiment [3], 0.0101 µg/mL.

B10: 001-Hu1 (antibody, V domains shown)
VH: B7 VH with Q5V, N19R, T40A, E42G, R44G, S84N, K87R, S88A, M93V, T116L
VL: B8 VL with S43A, V48L
notes: Humanized form of #001; also called VH1 + VL1
B10: the AUC in experiment [1] was determined as 458. The EC50 in experiment [2] came to 0.00962 µg/mL; in experiment [3], 0.00986 µg/mL.

B11: 001-Hu2 (antibody, V domains shown)
VH: EVQLVESGGGLVQPGGSLRLSCAASGFAFSTYDLSWVRQAPGKGLEWVAYINNGGISTYYSDTVKGRFTISRDNAKNSLYLQMNSLRAEDTAVYYCVRGPFYGSANYFDYWGQGTLVTVSS
VL: B8 VL with V48I, Y71F
notes: Humanized form of #001; also called VH2 + VL2
In experiment [1], B11 displayed an AUC of 433. Besides, the EC50 in experiment [2] turned out to be 0.00914 µg/mL; in experiment [3], 0.00956 µg/mL.

B12: 001-Hu4 (antibody, V domains shown)
VH: B11 VH
VL: B8 VL
notes: Humanized form of #001; also called VH2 + VL4
On to B12, for which, in experiment [1], the AUC amounted to 452. The EC50 turned out to be 0.00927 µg/mL in experiment [2] and 0.00894 µg/mL in experiment [3].

B13: 224-WT (antibody, V domains shown)
VH: EVQLQESGPEIVKPGASVKLSCTASGFNNKDIYMHWVKQRPEQGLEWIGRIDPATGNTKHDPKFQDKATLSSDTSSNTAYLQFSSLTSEDTAVYYCAHSPYGDFGAMDYWGQGTTVTVSS
VL: DIQMTQSPAIMSASLGERVTMTCTASSSVSSNYLHWYQQKPGSSPKLWIYSTSNLPSGVPARFSGSGSGTSYSLTISSMEAEDAATYYCHQYHRSPWTFGGGTKLEIK
notes: Human-murine chimeric wild-type molecule; also called human-murine chimeric antibody WT of #224
In turn, B13 yielded an AUC in experiment [1] of 667.

B14: 224-Hu1 (antibody, V domains shown)
VH: QVQLVQSGAEVKKPGASVKVSCKASGFNNKDIYMHWVRQAPGQGLEWIGRIDPATGNTKHDPKFQDRVTMTSDTSTNTVYMELSSLRSEDTAVYYCARSPYGDFGAMDYWGQGTLVTVSS
VL: DIQMTQSPSSLSASVGDRVTITCTASSSVSSNYLHWYQQKPGKAPKLWIYSTSNLPSGVPSRFSGSGSGTDFTLTISSLQPEDFATYYCHQYHRSPWTFGQGTKVEIK
notes: Humanized form of #224; also called VH8 + VL6
Turning to B14, the “% Relative activity (WT antibody/test antibody)” value in experiment [4] worked out at 143%. The same molecule showed an AUC in experiment [1] of 642. Besides, the EC50 in experiment [2] came to 0.00998 µg/mL; in experiment [3] it was 0.0104 µg/mL.

B15: 224-Hu6 (antibody, V domains shown)
VH: B14 VH
VL: B14 VL with K43S, A44S
notes: Humanized form of #224; also called VH8 + VL7
For B15, the “% Relative activity (WT antibody/test antibody)” value in experiment [4] was 104%. The molecule also returned an AUC in experiment [1] of 603. In addition, the EC50 in experiment [2] was found to be 0.00997 µg/mL; in experiment [3] it was 0.0111 µg/mL.
